Results taken from IntAct's records for PubMed 31515488.

B1: Interleukin-1 receptor-associated kinase 4 (Homo sapiens), Q9NWZ3 (parent)
chain: MNKPITPSTYVRCLNVGLIRKLSDFIDPQEGWKKLAVAIKKPSGDDRYNQFHIRRFEALLQTGKSPTSELLFDWGTTNCTVGDLVDLLIQNEFFAPASLLLPDAVPKTANTLPSKEAITVQQKQMPFCDKDRTLMTPVQNLEQSYMPPDSSSPENKSLEVSDTRFHSFSFYELKNVTNNFDERPISVGGNKMGEGGFGVVYKGYVNNTTVAVKKLAAMVDITTEELKQQFDQEIKVMAKCQHENLVELLGFSSDGDDLCLVYVYMPNGSLLDRLSCLDGTPPLSWHMRCKIAQGAANGINFLHENHHIHRDIKSANILLDEAFTAKISDFGLARASEKFAQTVMTSRIVGTTAYMAPEALRGEITPKSDIYSFGVVLLEIITGLPAVDEHREPQLLLDIKEEIEDEEKTIEDYIDKKMNDADSTSVEAMYSVASQCLHEKKNKRPDIKKVQQLLQEMTAS
B2: EF-hand domain-containing protein 1 (Homo sapiens), Q5JVL4 (parent)
chain: MVSNPVHGLPFLPGTSFKDSTKTAFHRSQTLSYRNGYAIVRRPTVGIGGDRLQFNQLSQAELDELASKAPVLTYGQPKQAPPADFIPAHVAFDKKVLKFDAYFQEDVPMSTEEQYRIRQVNIYYYLEDDSMSVIEPVVENSGILQGKLIKRQRLAKNDRGDHYHWKDLNRGINITIYGKTFRVVDCDQFTQVFLESQGIELNPPEKMALDPYTELRKQPLRKYVTPSDFDQLKQFLTFDKQVLRFYAIWDDTDSMYGECRTYIIHYYLMDDTVEIREVHERNDGRDPFPLLMNRQRVPKVLVENAKNFPQCVLEISDQEVLEWYTAKDFIVGKSLTILGRTFFIYDCDPFTRRYYKEKFGITDLPRIDVSKREPPPVKQELPPYNGFGLVEDSAQNCFALIPKAPKKDVIKMLVNDNKVLRYLAVLESPIPEDKDRRFVFSYFLATDMISIFEPPVRNSGIIGGKYLGRTKVVKPYSTVDNPVYYGPSDFFIGAVIEVFGHRFIILDTDEYVLKYMESNAAQYSPEALASIQNHVRKREAPAPEAESKQTEKDPGVQELEALIDTIQKQLKDHSCKDNIREAFQIYDKEASGYVDRDMFFKICESLNVPVDDSLVKELIRMCSHGEGKINYYNFVRAFSN
partner: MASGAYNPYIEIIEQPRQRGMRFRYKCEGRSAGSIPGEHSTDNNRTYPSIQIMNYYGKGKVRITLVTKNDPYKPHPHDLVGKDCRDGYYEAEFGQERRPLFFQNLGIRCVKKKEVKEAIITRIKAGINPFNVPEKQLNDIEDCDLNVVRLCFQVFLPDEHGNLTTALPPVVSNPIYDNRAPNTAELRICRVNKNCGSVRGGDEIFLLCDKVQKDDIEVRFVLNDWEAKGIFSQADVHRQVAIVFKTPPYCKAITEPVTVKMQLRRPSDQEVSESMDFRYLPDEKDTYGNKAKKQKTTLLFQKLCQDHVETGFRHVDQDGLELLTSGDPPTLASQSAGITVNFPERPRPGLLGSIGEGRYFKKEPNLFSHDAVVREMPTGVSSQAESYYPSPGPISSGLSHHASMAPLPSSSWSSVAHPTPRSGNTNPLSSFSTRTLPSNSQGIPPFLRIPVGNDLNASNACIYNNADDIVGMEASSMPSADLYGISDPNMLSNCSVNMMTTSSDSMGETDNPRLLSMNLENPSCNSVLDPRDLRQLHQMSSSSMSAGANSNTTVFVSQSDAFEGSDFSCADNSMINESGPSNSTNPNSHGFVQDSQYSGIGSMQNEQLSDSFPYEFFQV
B3: Zinc finger protein RFP (Homo sapiens), P14373 (parent)
chain: MASGSVAECLQQETTCPVCLQYFAEPMMLDCGHNICCACLARCWGTAETNVSCPQCRETFPQRHMRPNRHLANVTQLVKQLRTERPSGPGGEMGVCEKHREPLKLYCEEDQMPICVVCDRSREHRGHSVLPLEEAVEGFKEQIQNQLDHLKRVKDLKKRRRAQGEQARAELLSLTQMEREKIVWEFEQLYHSLKEHEYRLLARLEELDLAIYNSINGAITQFSCNISHLSSLIAQLEEKQQQPTRELLQDIGDTLSRAERIRIPEPWITPPDLQEKIHIFAQKCLFLTESLKQFTEKMQSDMEKIQELREAQLYSVDVTLDPDTAYPSLILSDNLRQVRYSYLQQDLPDNPERFNLFPCVLGSPCFIAGRHYWEVEVGDKAKWTIGVCEDSVCRKGGVTSAPQNGFWAVSLWYGKEYWALTSPMTALPLRTPLQRVGIFLDYDAGEVSFYNVTERCHTFTFSHATFCGPVRPYFSLSYSGGKSAAPLIICPMSGIDGFSGHVGNHGHSMETSP
partner: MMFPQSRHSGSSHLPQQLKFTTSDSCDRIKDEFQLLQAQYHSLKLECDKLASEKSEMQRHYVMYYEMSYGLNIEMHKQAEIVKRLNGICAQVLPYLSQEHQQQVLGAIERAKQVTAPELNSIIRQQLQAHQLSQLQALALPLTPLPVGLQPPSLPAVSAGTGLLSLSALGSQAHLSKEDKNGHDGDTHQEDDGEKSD
B4: Adenosylhomocysteinase (Homo sapiens), P23526 (parent)
chain: MSDKLPYKVADIGLAAWGRKALDIAENEMPGLMRMRERYSASKPLKGARIAGCLHMTVETAVLIETLVTLGAEVQWSSCNIFSTQDHAAAAIAKAGIPVYAWKGETDEEYLWCIEQTLYFKDGPLNMILDDGGDLTNLIHTKYPQLLPGIRGISEETTTGVHNLYKMMANGILKVPAINVNDSVTKSKFDNLYGCRESLIDGIKRATDVMIAGKVAVVAGYGDVGKGCAQALRGFGARVIITEIDPINALQAAMEGYEVTTMDEACQEGNIFVTTTGCIDIILGRHFEQMKDDAIVCNIGHFDVEIDVKWLNENAVEKVNIKPQVDRYRLKNGRRIILLAEGRLVNLGCAMGHPSFVMSNSFTNQVMAQIELWTHPDKYPVGVHFLPKKLDEAVAEAHLGKLNVKLTKLTEKQAQYLGMSCDGPFKPDHYRY
partner: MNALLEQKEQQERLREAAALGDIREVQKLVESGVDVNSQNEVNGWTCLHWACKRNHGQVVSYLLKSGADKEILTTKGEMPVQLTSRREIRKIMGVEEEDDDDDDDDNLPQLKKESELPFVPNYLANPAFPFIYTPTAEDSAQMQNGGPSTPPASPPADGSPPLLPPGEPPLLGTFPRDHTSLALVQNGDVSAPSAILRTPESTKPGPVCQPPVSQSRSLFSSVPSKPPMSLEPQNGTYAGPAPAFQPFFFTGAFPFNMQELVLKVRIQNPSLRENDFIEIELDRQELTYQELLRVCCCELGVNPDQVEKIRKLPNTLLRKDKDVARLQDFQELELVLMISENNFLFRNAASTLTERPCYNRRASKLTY

Variants of: B1
Settings: with myd88_human MYD88, Q99836
myd88_human MYD88, Q99836, sequence (Q99836 whole entry): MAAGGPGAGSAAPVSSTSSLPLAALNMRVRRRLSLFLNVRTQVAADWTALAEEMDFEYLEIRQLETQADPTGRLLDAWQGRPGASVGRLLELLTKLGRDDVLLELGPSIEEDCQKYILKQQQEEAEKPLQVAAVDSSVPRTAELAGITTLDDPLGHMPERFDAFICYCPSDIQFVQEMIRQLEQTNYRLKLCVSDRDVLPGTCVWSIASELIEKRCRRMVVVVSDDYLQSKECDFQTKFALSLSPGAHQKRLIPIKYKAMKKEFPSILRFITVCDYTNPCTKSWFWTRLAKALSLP

Variant | effect of a mutation on the interaction
T76I | disrupting interaction strength
R20W | with no effect
R391H | with no effect
R12C | disrupting interaction strength
R12H | disrupting interaction strength
A428T | with no effect
D73E | disrupting interaction strength

Variants of: B2
Settings: with rel_human REL

Variant | effect of a mutation on the interaction
F229L | with no effect
R159W | with no effect
Y102C | with no effect

Variants of: B3
Settings: with tle5_human TLE5, Q08117

Variant | effect of a mutation on the interaction
N355S | with no effect

Variants of: B4
Settings: with anr40_human ANKRD40, Q6AI12

Variant | effect of a mutation on the interaction
I92V | with no effect
